Measurements as given in PMC3362203 (Nature structural & molecular biology, 2011).

What was measured:
[1] = molecular target: 1:1 RP105 N402Q–MD-1 complex
[2] = molecular target: bovine 1:1 sRP105–MD-1 complex (building block of the 2:2 complex) (bovine); assay: crystal structure
[3] = molecular target: bovine 1:1 sRP105–MD-1 complex (building block of the 2:2 complex) (bovine); assay: SEC
SEC = molecular target: the molecule itself; assay: SEC

**Q.** 1:1 RP105 N402Q–MD-1 complex was tested. Which stoichiometry N [1] did it give?
**A.** 2

**Q.** What does the source list for “bovine 1:1 sRP105–MD-1 complex (building block of the 2:2 complex)”?
**A.** stoichiometry N [2]: 2; stoichiometry N [3]: 2

B1: mouse 1:1 sRP105–MD-1 complex (wild type) (complex)
chain 1: TTSSDQKCIEKEVNKTYNCENLGLNEIPGTLPNSTECLEFSFNVLPTIQNTTFSRLINLTFLDLTRCQIYWIHEDTFQSQHRLDTLVLTANPLIFMAETALSGPKALKHLFFIQTGISSIDFIPLHNQKTLESLYLGSNHISSIKLPKGFPTEKLKVLDFQNNAIHYLSKEDMSSLQQATNLSLNLNGNDIAGIELGAFDSAVFQSLNFGGTQNLLVIFKGLKNSTIQSLWLGTFEDMDDEDISPAVFEGLCEMSVESINLQKHYFFNISSNTFHCFSGLQELDLTATHLSELPSGLVGLSTLKKLVLSANKFENLCQISASNFPSLTHLSIKGNTKRLELGTGCLENLENLRELDLSHDDIETSDCCNLQLRNLSHLQSLNLSYNEPLSLKTEAFKECPQLELLDLAFTRLKVKDAQSPFQNLHLLKVLNLSHSLLDISSEQLFDGLPALQHLNLQGNHFPKGNIQKTNSLQTLGRLEILVLSFCDLSSIDQHAFTSLKMMNHVDLSHNRLTSSSIEALSHLKGIYLNLASNRISIILPSLLPILSQQRTINLRQNPLDCTCSNIYFLEWYKENMQKLEDTEDTLCENPPLLRGVRLSDVTLSCS
chain 2: DHGSENGWPKHTACNSGGLEVVYQSCDPLQDFGLSIDQCSKQIQSNLNIRFGIILRQDIRKLFLDITLMAKGSSILNYSYPLCEEDQPKFSFCGRRKGEQIYYAGPVNNPGLDVPQGEYQLLLELYNENRATVACANATVTSS
**Q.** B1 was tested. Which “stoichiometry N” value (SEC) did it give?
**A.** 2

B2: human 1:1 sRP105–MD-1 complex (complex)
chain 1: WDQMCIEKEANKTYNCENLGLSEIPDTLPNTTEFLEFSFNFLPTIHNRTFSRLMNLTFLDLTRCQINWIHEDTFQSHHQLSTLVLTGNPLIFMAETSLNGPKSLKHLFLIQTGISNLEFIPVHNLENLESLYLGSNHISSIKFPKDFPARNLKVLDFQNNAIHYISREDMRSLEQAINLSLNFNGNNVKGIELGAFDSTIFQSLNFGGTPNLSVIFNGLQNSTTQSLWLGTFEDIDDEDISSAMLKGLCEMSVESLNLQEHRFSDISSTTFQCFTQLQELDLTATHLKGLPSGMKGLNLLKKLVLSVNHFDQLCQISAANFPSLTHLYIRGNVKKLHLGVGCLEKLGNLQTLDLSHNDIEASDCCSLQLKNLSHLQTLNLSHNEPLGLQSQAFKECPQLELLDLAFTRLHINAPQSPFQNLHFLQVLNLTYCFLDTSNQHLLAGLPVLRHLNLKGNHFQDGTITKTNLLQTVGSLEVLILSSCGLLSIDQQAFHSLGKMSHVDLSHNSLTCDSIDSLSHLKGIYLNLAANSINIISPRLLPILSQQSTINLSHNPLDCTCSNIHFLTWYKENLHKLEGSEETTCANPPSLRGVKLSDVKLSCG
chain 2: GGGGKAWPTHVVCSDSGLEVLYQSCDPLQDFGFSVEKCSKQLKSNINIRFGIILREDIKELFLDLALMSQGSSVLNFSYPICEAALPKFSFCGRRKGEQIYYAGPVNNPEFTIPQGEYQVLLELYTEKRSTVACANATIMCS
**Q.** Which “stoichiometry N” value (SEC) does the source give for B2 here?
**A.** 2
